This experiment concerns the target FLAG-HA-HA (F2H)-tagged tbRAP1 at its endogenous locus (Trypanosoma brucei (endogenous locus in T. brucei cells)). Kind of experiment: co-IP.

endogenous tbTRF (natural protein) registered a percent co-immunoprecipitated of 10%.

The values are drawn from PMC2673096.
